Data as given in US20240141072A1 (published 2024).

What was measured:
Assay in all cases: Octet BLI; biotinylated huDLL3-IgG1 fusion on streptavidin tips; single 50 nM trispecific, conditioned medium
[1] = molecular target: T1, anti-DLL3 trispecific protein with DLL3 binding domain 41D07
T1 construct: trispecific, one chain
Description: (§1) Using the conditioned medium with known concentrations of the anti-DLL3 trispecific proteins, the relative binding affinities of the anti-DLL3 trispecific proteins toward human DLL3 protein were measured using a method where biotinylated version of human DLL3 protein were expressed as a human IgG1 fusion protein, and the binding affinity measurement was carried out in an Octet instrument with streptavidin tips.

[2] = molecular target: T2, anti-DLL3 trispecific protein with DLL3 binding domain 53C04
T2 construct: trispecific, one chain
Description: as §1

[3] = molecular target: T3, anti-DLL3 trispecific protein with DLL3 binding domain 42C08
T3 construct: trispecific, one chain
Description: as §1

[4] = molecular target: T4, anti-DLL3 trispecific protein with DLL3 binding domain 42G05
T4 construct: trispecific, one chain
Description: as §1

[5] = molecular target: T5, anti-DLL3 trispecific protein with DLL3 binding domain 42E02
T5 construct: trispecific, one chain
Description: as §1

[6] = molecular target: T6, anti-DLL3 trispecific protein with DLL3 binding domain 51E03
T6 construct: trispecific, one chain
Description: as §1

[7] = molecular target: T7, anti-DLL3 trispecific protein with DLL3 binding domain 42A07
T7 construct: trispecific, one chain
Description: as §1

[8] = molecular target: T8, anti-DLL3 trispecific protein with DLL3 binding domain 51A02
T8 construct: trispecific, one chain
Description: as §1

[9] = molecular target: T9, anti-DLL3 trispecific protein with DLL3 binding domain 51C02
T9 construct: trispecific, one chain
Description: as §1

[10] = molecular target: T10, anti-DLL3 trispecific protein with DLL3 binding domain 41D03
T10 construct: trispecific, one chain
Description: as §1

[11] = molecular target: T11, anti-DLL3 trispecific protein with DLL3 binding domain 42C03
T11 construct: trispecific, one chain
Description: as §1

[12] = molecular target: T12, anti-DLL3 trispecific protein with DLL3 binding domain 41E01
T12 construct: trispecific, one chain
Description: as §1

[13] = molecular target: T13, anti-DLL3 trispecific protein with DLL3 binding domain 42B10
T13 construct: trispecific, one chain
Description: as §1

[14] = molecular target: T14, anti-DLL3 trispecific protein with DLL3 binding domain 42A03
T14 construct: trispecific, one chain
Description: as §1

[15] = molecular target: T15, anti-DLL3 trispecific protein with DLL3 binding domain 42B06
T15 construct: trispecific, one chain
Description: as §1

[16] = molecular target: T16, anti-DLL3 trispecific protein with DLL3 binding domain 53A09
T16 construct: trispecific, one chain
Description: as §1

[17] = molecular target: T17, anti-DLL3 trispecific protein with DLL3 binding domain 53A05
T17 construct: trispecific, one chain
Description: as §1

[18] = molecular target: T18, anti-DLL3 trispecific protein with DLL3 binding domain 42A11
T18 construct: trispecific, one chain
Description: as §1

[19] = molecular target: T19, anti-DLL3 trispecific protein with DLL3 binding domain 51A01
T19 construct: trispecific, one chain
Description: as §1

[20] = molecular target: T20, anti-DLL3 trispecific protein with DLL3 binding domain 51F01
T20 construct: trispecific, one chain
Description: as §1

[21] = molecular target: T21, anti-DLL3 trispecific protein with DLL3 binding domain 51H05
T21 construct: trispecific, one chain; also called 51H5
Description: as §1

[22] = molecular target: T22, anti-DLL3 trispecific protein with DLL3 binding domain 42E05
T22 construct: trispecific, one chain
Description: as §1

[23] = molecular target: T23, anti-DLL3 trispecific protein with DLL3 binding domain 42A06
T23 construct: trispecific, one chain
Description: as §1

[24] = molecular target: T24, anti-DLL3 trispecific protein with DLL3 binding domain 42H05
T24 construct: trispecific, one chain
Description: as §1

[25] = molecular target: T25, anti-DLL3 trispecific protein with DLL3 binding domain 51H04
T25 construct: trispecific, one chain
Description: as §1

[26] = molecular target: T26, anti-DLL3 trispecific protein with DLL3 binding domain 42F01
T26 construct: trispecific, one chain
Description: as §1

[27] = molecular target: T27, anti-DLL3 trispecific protein with DLL3 binding domain 51F02
T27 construct: trispecific, one chain
Description: as §1

[28] = molecular target: T28, anti-DLL3 trispecific protein with DLL3 binding domain 54B05
T28 construct: trispecific, one chain
Description: as §1

T7 sequence (chain, as listed by the source): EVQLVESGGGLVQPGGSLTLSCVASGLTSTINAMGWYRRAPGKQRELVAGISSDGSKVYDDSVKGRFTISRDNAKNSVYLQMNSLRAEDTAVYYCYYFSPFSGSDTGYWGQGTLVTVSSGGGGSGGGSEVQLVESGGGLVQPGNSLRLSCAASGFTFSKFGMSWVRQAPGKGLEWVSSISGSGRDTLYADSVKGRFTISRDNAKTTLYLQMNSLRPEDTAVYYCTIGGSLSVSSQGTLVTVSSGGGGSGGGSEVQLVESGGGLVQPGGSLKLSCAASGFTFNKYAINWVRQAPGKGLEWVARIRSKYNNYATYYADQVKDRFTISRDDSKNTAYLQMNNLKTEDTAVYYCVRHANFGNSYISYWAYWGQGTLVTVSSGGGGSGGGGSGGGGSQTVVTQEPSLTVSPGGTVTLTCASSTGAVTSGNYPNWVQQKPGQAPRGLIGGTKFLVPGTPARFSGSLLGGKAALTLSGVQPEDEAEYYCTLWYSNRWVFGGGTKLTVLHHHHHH
T5 sequence (chain, as listed by the source): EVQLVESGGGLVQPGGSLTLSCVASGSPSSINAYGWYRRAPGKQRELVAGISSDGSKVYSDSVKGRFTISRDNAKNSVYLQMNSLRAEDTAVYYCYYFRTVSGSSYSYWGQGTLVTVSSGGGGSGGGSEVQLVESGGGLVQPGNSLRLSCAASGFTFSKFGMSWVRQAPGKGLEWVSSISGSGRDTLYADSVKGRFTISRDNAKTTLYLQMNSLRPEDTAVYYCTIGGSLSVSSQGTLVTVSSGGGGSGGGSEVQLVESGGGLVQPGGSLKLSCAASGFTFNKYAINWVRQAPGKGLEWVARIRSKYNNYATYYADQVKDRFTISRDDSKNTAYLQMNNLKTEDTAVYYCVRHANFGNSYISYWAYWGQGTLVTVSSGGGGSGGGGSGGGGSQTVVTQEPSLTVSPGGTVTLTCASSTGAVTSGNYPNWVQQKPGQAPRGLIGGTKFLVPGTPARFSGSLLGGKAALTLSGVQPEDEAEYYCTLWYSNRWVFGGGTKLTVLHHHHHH
T21 sequence (chain, as listed by the source): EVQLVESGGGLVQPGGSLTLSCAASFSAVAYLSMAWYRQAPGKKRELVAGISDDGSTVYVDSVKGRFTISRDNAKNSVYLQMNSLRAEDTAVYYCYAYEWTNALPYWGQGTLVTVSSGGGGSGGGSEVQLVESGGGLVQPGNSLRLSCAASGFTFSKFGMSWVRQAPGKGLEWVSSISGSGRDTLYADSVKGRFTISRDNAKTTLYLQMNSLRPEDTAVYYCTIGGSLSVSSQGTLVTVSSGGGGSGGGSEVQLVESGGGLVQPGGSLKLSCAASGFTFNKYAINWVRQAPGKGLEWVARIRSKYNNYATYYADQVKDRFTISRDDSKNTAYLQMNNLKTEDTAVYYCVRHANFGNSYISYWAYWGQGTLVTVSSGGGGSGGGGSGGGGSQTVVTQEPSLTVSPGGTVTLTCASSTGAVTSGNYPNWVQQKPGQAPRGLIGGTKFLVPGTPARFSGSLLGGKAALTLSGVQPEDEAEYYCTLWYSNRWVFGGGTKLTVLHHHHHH
T23 sequence (chain, as listed by the source): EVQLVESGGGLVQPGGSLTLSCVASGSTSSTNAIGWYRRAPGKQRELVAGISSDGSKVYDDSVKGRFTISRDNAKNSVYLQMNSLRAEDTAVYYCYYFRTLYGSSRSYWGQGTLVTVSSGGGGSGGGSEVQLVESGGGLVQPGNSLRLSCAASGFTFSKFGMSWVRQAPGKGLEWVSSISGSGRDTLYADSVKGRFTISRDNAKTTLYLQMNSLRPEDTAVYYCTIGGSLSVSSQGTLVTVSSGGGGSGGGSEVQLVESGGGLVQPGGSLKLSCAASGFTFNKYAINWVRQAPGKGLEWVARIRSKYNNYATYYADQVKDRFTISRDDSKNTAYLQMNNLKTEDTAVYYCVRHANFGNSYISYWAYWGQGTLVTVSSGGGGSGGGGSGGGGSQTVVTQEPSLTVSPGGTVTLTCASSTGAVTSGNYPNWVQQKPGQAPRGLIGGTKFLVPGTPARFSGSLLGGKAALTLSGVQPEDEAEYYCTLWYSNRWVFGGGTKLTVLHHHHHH
T28 sequence (chain, as listed by the source): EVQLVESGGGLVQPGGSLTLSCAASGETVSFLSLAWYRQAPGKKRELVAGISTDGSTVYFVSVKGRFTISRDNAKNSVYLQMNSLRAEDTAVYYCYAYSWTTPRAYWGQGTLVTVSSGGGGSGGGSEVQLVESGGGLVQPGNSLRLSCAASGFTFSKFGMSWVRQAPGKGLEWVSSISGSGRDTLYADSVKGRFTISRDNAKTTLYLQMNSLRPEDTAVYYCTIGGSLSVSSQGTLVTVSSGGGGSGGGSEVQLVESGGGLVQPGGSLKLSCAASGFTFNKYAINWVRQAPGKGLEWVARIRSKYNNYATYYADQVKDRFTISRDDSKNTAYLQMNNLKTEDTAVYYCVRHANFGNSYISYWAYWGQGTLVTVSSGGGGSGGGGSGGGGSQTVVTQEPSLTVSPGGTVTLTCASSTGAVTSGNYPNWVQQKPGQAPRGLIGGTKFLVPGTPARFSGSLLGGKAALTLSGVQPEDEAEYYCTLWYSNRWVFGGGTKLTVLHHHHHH
T25 sequence (chain, as listed by the source): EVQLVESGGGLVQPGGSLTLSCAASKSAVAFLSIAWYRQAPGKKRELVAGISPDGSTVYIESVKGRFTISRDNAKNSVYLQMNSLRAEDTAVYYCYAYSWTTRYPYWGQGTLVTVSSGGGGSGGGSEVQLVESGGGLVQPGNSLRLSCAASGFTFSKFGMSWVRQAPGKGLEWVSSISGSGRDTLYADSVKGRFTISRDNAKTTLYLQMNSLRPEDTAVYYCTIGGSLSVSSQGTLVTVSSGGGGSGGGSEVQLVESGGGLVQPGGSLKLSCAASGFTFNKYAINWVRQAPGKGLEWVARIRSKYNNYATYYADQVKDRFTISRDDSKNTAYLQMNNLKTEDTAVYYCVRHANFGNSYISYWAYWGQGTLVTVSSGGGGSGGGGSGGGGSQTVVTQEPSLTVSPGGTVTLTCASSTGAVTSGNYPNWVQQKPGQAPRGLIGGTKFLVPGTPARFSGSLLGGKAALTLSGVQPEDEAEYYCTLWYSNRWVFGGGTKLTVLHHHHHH
T9 sequence (chain, as listed by the source): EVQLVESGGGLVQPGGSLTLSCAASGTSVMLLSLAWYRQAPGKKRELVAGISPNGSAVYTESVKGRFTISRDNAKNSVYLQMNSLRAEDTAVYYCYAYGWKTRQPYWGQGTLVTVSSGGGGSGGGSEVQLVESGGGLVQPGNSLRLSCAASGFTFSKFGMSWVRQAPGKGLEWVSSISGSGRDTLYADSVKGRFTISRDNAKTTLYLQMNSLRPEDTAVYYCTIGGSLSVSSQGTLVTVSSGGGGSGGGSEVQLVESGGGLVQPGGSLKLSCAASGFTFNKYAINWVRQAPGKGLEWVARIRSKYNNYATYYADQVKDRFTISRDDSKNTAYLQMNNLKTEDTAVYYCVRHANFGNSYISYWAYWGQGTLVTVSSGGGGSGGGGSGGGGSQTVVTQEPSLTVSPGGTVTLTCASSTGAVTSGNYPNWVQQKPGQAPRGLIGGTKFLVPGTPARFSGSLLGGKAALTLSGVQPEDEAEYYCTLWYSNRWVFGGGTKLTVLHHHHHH
T10 sequence (chain, as listed by the source): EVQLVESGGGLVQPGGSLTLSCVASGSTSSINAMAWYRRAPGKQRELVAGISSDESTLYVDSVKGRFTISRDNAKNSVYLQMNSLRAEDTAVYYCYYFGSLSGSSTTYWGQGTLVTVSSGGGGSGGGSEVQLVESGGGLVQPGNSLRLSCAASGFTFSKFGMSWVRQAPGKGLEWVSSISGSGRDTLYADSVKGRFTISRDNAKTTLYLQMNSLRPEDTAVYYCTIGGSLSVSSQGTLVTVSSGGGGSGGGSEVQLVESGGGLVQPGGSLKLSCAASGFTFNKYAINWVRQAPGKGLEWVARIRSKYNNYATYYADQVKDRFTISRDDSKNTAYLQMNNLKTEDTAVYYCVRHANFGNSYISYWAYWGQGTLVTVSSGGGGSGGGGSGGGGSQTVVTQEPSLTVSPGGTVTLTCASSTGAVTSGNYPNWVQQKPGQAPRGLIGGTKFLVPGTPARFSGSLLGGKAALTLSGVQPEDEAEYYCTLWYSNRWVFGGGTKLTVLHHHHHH
T27 sequence (chain, as listed by the source): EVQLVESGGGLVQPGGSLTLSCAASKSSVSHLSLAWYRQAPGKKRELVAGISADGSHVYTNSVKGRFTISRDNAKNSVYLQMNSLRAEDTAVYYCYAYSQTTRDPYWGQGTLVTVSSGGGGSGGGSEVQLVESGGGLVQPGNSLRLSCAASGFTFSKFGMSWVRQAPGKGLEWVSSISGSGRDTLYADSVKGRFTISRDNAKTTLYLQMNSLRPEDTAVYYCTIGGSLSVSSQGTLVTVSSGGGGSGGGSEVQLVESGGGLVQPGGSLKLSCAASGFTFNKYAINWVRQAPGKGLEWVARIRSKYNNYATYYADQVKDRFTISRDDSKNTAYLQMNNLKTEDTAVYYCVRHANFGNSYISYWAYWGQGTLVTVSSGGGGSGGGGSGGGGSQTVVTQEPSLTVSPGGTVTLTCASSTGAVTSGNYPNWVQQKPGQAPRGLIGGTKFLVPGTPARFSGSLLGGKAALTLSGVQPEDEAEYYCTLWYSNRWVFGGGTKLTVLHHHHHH

Kd [1]: 34 nM
Kd [2]: 0.5 nM
Kd [3]: 1.8 nM
Kd [4]: 3.4 nM
Kd [5]: 2.9 nM
Kd [6]: 7.2 nM
Kd [7]: 3.2 nM
Kd [8]: 1.2 nM
Kd [9]: 7.5 nM
Kd [10]: 4.8 nM
Kd [11]: 0.88 nM
Kd [12]: 5.3 nM
Kd [13]: 1.3 nM
Kd [14]: 1.9 nM
Kd [15]: 3.2 nM
Kd [16]: 0.97 nM
Kd [17]: 0.31 nM
Kd [18]: 2 nM
Kd [19]: 0.92 nM
Kd [20]: 16 nM
Kd [21]: 0.67 nM
Kd [22]: 1.2 nM
Kd [23]: 1 nM
Kd [24]: 2.7 nM
Kd [25]: 1 nM
Kd [26]: 5.5 nM
Kd [27]: 2.4 nM
Kd [28]: 0.76 nM
B1: biotinylated human DLL3 protein expressed as a human IgG1 fusion protein (Fc fusion, not shown: a dimerising Fc or GST)
chain: AGVFELQIHSFGPGPGPGAPRSPCSARLPCRLFFRVCLKPGLSEEAAESPCALGAALSARGPVYTEQPGAPAPDLPLPDGLLQVPFRDAWPGTFSFIIETWREELGDQIGGPAWSLLARVAGRRRLAAGGPWARDIQRAGAWELRFSYRARCEPPAVGTACTRLCRPRSAPSRCGPGLRPCAPLEDECEAPLVCRAGCSPEHGFCEQPGECRCLEGWTGPLCTVPVSTSSCLSPRGPSSATTGCLVPGPGPCDGNPCANGGSCSETPRSFECTCPRGFYGLRCEVSGVTCADGPCFNGGLCVGGADPDSAYICHCPPGFQGSNCEKRVDRCSLQPCRNGGLCLDLGHALRCRCRAGFAGPRCEHDLDDCAGRACANGGTCVEGGGAHRCSCALGFGGRDCRERADPCAARPCAHGGRCYAHFSGLVCACAPGYMGARCEFPVHPDGASALPAAPPGLRPGDPQRYL
modifications: biotinylated
